Test results as given in patent US20230256092A1, “COMBINED USE OF ANTI-CCR8 ANTIBODY AND CHEMOTHERAPEUTIC AGENT” (Shionogi & Co., Ltd., priority 2020, published 2023).

T1: human CCR4 (Homo sapiens, UniProt P51679)
T1 construct: expressed in transfected cells; host or cells: Expi293 cells, pcDNA 3.4 vector, transient
T1 sequence (P51679 1-360): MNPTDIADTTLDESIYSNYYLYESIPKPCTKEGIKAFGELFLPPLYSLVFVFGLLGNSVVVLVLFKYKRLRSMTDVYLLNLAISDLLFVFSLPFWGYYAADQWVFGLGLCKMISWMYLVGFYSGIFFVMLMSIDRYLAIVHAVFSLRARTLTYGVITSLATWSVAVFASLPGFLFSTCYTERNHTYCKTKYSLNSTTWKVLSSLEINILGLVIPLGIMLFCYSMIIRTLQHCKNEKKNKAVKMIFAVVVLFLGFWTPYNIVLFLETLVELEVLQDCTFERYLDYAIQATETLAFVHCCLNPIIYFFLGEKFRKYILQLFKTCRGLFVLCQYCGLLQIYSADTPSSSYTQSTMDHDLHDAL

T2: mouse CCR8 (Mus musculus, UniProt P56484)
T2 construct: expressed in transfected cells; host or cells: Expi293 cells, pcDNA 3.4 vector, transient
T2 sequence (P56484 1-353): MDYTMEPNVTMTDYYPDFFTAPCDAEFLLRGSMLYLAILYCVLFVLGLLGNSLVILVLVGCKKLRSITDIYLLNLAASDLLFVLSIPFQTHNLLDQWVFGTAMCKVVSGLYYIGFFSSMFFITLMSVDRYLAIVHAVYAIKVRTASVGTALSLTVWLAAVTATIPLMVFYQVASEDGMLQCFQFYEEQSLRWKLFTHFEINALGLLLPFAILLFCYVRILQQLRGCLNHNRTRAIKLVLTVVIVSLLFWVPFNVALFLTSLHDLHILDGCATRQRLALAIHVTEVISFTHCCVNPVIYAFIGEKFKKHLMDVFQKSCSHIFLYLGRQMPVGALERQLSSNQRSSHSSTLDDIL

B1: h10A11 (IGKV4-1/IGHV3-73 D101E): humanized 10A11 heavy chain CDR point mutant (antibody, V domains shown)
VL: DIVMTQSPDSLAVSLGERATINCRSSKSLLHSNGNTYLYWYQQKPGQPPKLLIYRMSNLASGVPDRFSGSGSGTDFTLTISSLQAEDVAVYYCMQHLEYPLTFGQGTKLEIKRT
VH: EVQLVESGGGLVQPGGSLKLSCAASGFAFNTYALYWVRQASGKGLEWVGRIRSKSNNYATYYADSVKDRFTISRDDSKNTAYLQMNSLKTEDTAVYYCTRARFYYSDYGYAMEYWGQGTLVTVSS
B2: h10A11 (IGKV4-1/IGHV3-73 Y35F): humanized 10A11 heavy chain CDR point mutant (antibody, V domains shown)
VL: DIVMTQSPDSLAVSLGERATINCRSSKSLLHSNGNTYLYWYQQKPGQPPKLLIYRMSNLASGVPDRFSGSGSGTDFTLTISSLQAEDVAVYYCMQHLEYPLTFGQGTKLEIKRT
VH: EVQLVESGGGLVQPGGSLKLSCAASGFAFNTYALFWVRQASGKGLEWVGRIRSKSNNYATYYADSVKDRFTISRDDSKNTAYLQMNSLKTEDTAVYYCTRARFYYSDYGYAMDYWGQGTLVTVSS
B3: h10A11 (IGKV4-1/IGHV3-73 A33V): humanized 10A11 heavy chain CDR point mutant (antibody, V domains shown)
VL: DIVMTQSPDSLAVSLGERATINCRSSKSLLHSNGNTYLYWYQQKPGQPPKLLIYRMSNLASGVPDRFSGSGSGTDFTLTISSLQAEDVAVYYCMQHLEYPLTFGQGTKLEIKRT
VH: EVQLVESGGGLVQPGGSLKLSCAASGFAFNTYVLYWVRQASGKGLEWVGRIRSKSNNYATYYADSVKDRFTISRDDSKNTAYLQMNSLKTEDTAVYYCTRARFYYSDYGYAMDYWGQGTLVTVSS
B4: h10A11 (IGKV4-1/IGHV3-73 Y102F): humanized 10A11 heavy chain CDR point mutant (antibody, V domains shown)
VL: DIVMTQSPDSLAVSLGERATINCRSSKSLLHSNGNTYLYWYQQKPGQPPKLLIYRMSNLASGVPDRFSGSGSGTDFTLTISSLQAEDVAVYYCMQHLEYPLTFGQGTKLEIKRT
VH: EVQLVESGGGLVQPGGSLKLSCAASGFAFNTYALYWVRQASGKGLEWVGRIRSKSNNYATYYADSVKDRFTISRDDSKNTAYLQMNSLKTEDTAVYYCTRARFYYSDYGYAMDFWGQGTLVTVSS
B5: h10A11 (IGKV4-1/IGHV3-73 Y32F): humanized 10A11 heavy chain CDR point mutant (antibody, V domains shown)
VL: DIVMTQSPDSLAVSLGERATINCRSSKSLLHSNGNTYLYWYQQKPGQPPKLLIYRMSNLASGVPDRFSGSGSGTDFTLTISSLQAEDVAVYYCMQHLEYPLTFGQGTKLEIKRT
VH: EVQLVESGGGLVQPGGSLKLSCAASGFAFNTFALYWVRQASGKGLEWVGRIRSKSNNYATYYADSVKDRFTISRDDSKNTAYLQMNSLKTEDTAVYYCTRARFYYSDYGYAMDYWGQGTLVTVSS
B6: h10A11 (IGKV4-1/IGHV3-73 L34I): humanized 10A11 heavy chain CDR point mutant (antibody, V domains shown)
VL: DIVMTQSPDSLAVSLGERATINCRSSKSLLHSNGNTYLYWYQQKPGQPPKLLIYRMSNLASGVPDRFSGSGSGTDFTLTISSLQAEDVAVYYCMQHLEYPLTFGQGTKLEIKRT
VH: EVQLVESGGGLVQPGGSLKLSCAASGFAFNTYAIYWVRQASGKGLEWVGRIRSKSNNYATYYADSVKDRFTISRDDSKNTAYLQMNSLKTEDTAVYYCTRARFYYSDYGYAMDYWGQGTLVTVSS
B7: h10A11 (IGKV4-1/IGHV3-73 T31A): humanized 10A11 heavy chain CDR point mutant (antibody, V domains shown)
VL: DIVMTQSPDSLAVSLGERATINCRSSKSLLHSNGNTYLYWYQQKPGQPPKLLIYRMSNLASGVPDRFSGSGSGTDFTLTISSLQAEDVAVYYCMQHLEYPLTFGQGTKLEIKRT
VH: EVQLVESGGGLVQPGGSLKLSCAASGFAFNAYALYWVRQASGKGLEWVGRIRSKSNNYATYYADSVKDRFTISRDDSKNTAYLQMNSLKTEDTAVYYCTRARFYYSDYGYAMDYWGQGTLVTVSS
B8: 2C7: mouse anti-human CCR8 neutralizing antibody; light chain SEQ ID NO: 35, heavy chain SEQ ID NO: 36 (antibody, V domains shown)
VH: QVQLKQSGPSLVQPSQSLSITCTVSGFSLTAYGVHWIRQSPGKGQEWLGVIWRGGSTDYNAAFMSRLTITKDNSKSQVFFKMNSLQADDTAIYYCAKKGGSYAMDYWGQGTSVTVSS
VL: DVVLTQTPLSLPVSLGGQASISCRSSQSLVHSNGNTYLHWYLQKPGQSPKLLIYKVSNRFSGVPDRFSGSGSGTDFTLKISRVEAEDLGVYFCSQSTQVPLTFGAGTKLELKR
modifications: 2C7 VH; 2C7 VL
B9: 2-7B: rat anti-human CCR8 antibody; light chain SEQ ID NO: 37, heavy chain SEQ ID NO: 38 (antibody, V domains shown)
VH: EVQLVESDGGLVQPGRSLKLSCAASGFTFSDYYMAWVRQAPTKGLEWVATITYDVYSTYYRDSVKGRFTISRDNAKSTLYLQMDSLRSEDTATYYCARHGGDGYNSGNWFAYWGQGTLVTVSS
VL: DIVLTQSPALAVSLGQRATISCRASQSVSISRYNIMHWYQQKPGQQPKLLIYRASNLASGIPARFSGSGSGTDFTLTINPVQADDIATYYCQQSRESPPTFGGGTKLELKR
modifications: 2-7B VH; 2-7B VL

Tests used:
human CCR8 = molecular target: T3, human CCR8 (Homo sapiens, UniProt P51685); assay: Neutralizing activity: inhibition of Ca2+ influx by 200 nM hCCL1 in human CCR8 expressing 293 cells (FLIPR), Test Example 6; assay type: cell-based; conditions: Table 9; WT IC50/mutant IC50; humanized 10A11 heavy chain CDR mutants, IGKV4-1/IGHV3-73
T3 construct: expressed in transfected cells; host or cells: 293 cells
Experimental: The antibody dilution diluted with a medium was added to human CCR8 expressing 293 cells in which a Ca^2+ indicator was incorporated beforehand, and Ca^2+ influx by addition of 200 nM hCCL1 (manufactured by BioLegend) was measured with FLIPR. […] The evaluation was performed at least three times, and IC50 was expressed as average±SD.

human CCR4 = molecular target: T1, human CCR4; assay: Antigen-binding test on transiently expressing Expi293 cells; parameters: key: an antibody having significantly reduced binding activity was indicated as A; an antibody having binding activity of the detection limit or less was indicated as x; The blank column means that it exhibits the same binding activity as the wild-type human CCR8 (hCCR8); conditions: 5, 0.5 and 0.05 ug/mL, in comparison to wild-type hCCR8
From the text: (§1) The gene encoding the full length of human CCR8 (UniProtKB/Swiss-Prot: P51685, SEQ ID NO: 1), the gene encoding the full length of human CCR4 (UniProtKB/Swiss-Prot: P51679, SEQ ID NO: 48) and the gene encoding the full length of mouse CCR8 (UniProtKB/Swiss-Prot: P56484, SEQ ID NO: 39) were cloned into pcDNA 3.4 vectors, respectively. These vectors were used for transfection to produce Expi293 cells transiently expressing human CCR8, human CCR4, or mouse CCR8. These cells were reacted with a dilution series of the purified antibodies of each clone, and the binding properties thereof were evaluated by detection with Alexa488-labeled anti-mouse IgG antibody (manufactured by Thermo Fisher Scientific). As a result, every antibody bound to human CCR8, but not to human CCR4 and mouse CCR8 at all.

mouse CCR8 = molecular target: T2, mouse CCR8; assay: as above; parameters: key: an antibody having significantly reduced binding activity was indicated as A; an antibody having binding activity of the detection limit or less was indicated as x; The blank column means that it exhibits the same binding activity as the wild-type human CCR8 (hCCR8); conditions: 5, 0.5 and 0.05 ug/mL, in comparison to wild-type hCCR8
From the text: as §1

[1] = test system: colon cancer-derived Colon26 cells; assay: Example 11: hCCR8-KI (KI/KI) mice inoculated with Colon26 cells, oxaliplatin combination (Part 2); assay type: in vivo, mouse; conditions: as Example 6; 2-7B part: oxaliplatin 10, 14, 17 days, antibody 14, 17 days; 19D7 part: oxaliplatin 10, 14 days, antibody 14 days; combinations from 10 days; Student's T one-sided
Experimental: The back of each hCCR8-KI (KI/KI) mouse (12 weeks old, female) prepared in Test Example 10 was intracutaneously inoculated with 3.5×10^5 colon cancer-derived Colon26 cells (50 uL).
To an oxaliplatin single administration group, saline was intravenously administered 5 days after tumor inoculation, and oxaliplatin (trade name: ELPLAT, Yakult Honsha Company, Limited) at 5 mg/kg body weight was intravenously administered 3 hours after the administration of the saline (N=10). To an anti-mouse CCR8 antibody and oxaliplatin combined administration group, an anti-human CCR8 antibody at 15 mg/kg body weight was intravenously administered 5 days after tumor inoculation, and oxaliplatin at 5 mg/kg body weight was intravenously administered 3 hours after the administration of the anti-mouse CCR8 antibody (N=10). To a control group, saline was intravenously administered 5 days after tumor inoculation, and saline was intravenously administered 3 hours after the administration of the saline (N=10). […] Tumor volumes were measured every 1 to 3 days from 4 days after tumor inoculation (a day before antibody administration). The tumor volume (mm^3) was measured in long diameter (mm)×short diameter (mm)×short diameter (mm)/2, and a significant difference test based on a Mann-Whitney U method (significance level: P<0.05) was conducted. […]

Row | Molecule | IC50 ratio (human CCR8) | other results
1 | B1 | n.d. (The n.d. (=not detectable) indicates that the IC50 value of the mutant is 10 nM or more) | –
2 | B2 | n.d. (The n.d. (=not detectable) indicates that the IC50 value of the mutant is 10 nM or more) | –
3 | B3 | n.d. (The n.d. (=not detectable) indicates that the IC50 value of the mutant is 10 nM or more) | –
4 | B4 | 0.99 | –
5 | B5 | 0.44 | –
6 | B6 | 0.43 | –
7 | B7 | 0.17 | –
8 | B8 | – | binding activity, hCCR4 (human CCR4): x; binding activity, mCCR8 (mouse CCR8): x
9 | B9 | – | tumor volume as compared to the control group [1]: no significant decrease
